Source: patent US9475855B2, “Human Notch3 based fusion proteins as decoy inhibitors of Notch3 signaling” (THE TRUSTEES OF COLUMBIA UNIVERSITY IN THE CITY OF NEW YORK, priority 2008, dated 2016)

Key:
HUVEC = HUVEC proliferation (CCK-8 kit); format: cell-based, human; details: transduced N1ECDFc, complete medium, 4 days
Experimental: These Figures show proliferation of Ad-VEGF165-transduced HUVEC. HUVEC were transduced with Ad-VEGF165 at the indicated dosages. Ad-LacZ was also co-infected to make the same total amount of adenovirus at a MOI of 40 pfu/cell. HUVEC were suspended in SFM supplemented with 1% FBS and then plated at 1×10^4 cells/well in 24-well multi-wll plates with 0.4 ml of medium. After 4 days, cell numbers were determined using the CCK-8 kit and the results are indicated as the ratio of cell numbers determined to the number of control cells, which were transduced with Ad-GFP at a MOI of 40 pfu/cell. […] Ad-VEGF-transduced HUVEC were treated with SU5416 at the indicated dosages.
These Figures show the effect of alteration of Notch signaling on cell proliferation. The cells were transduced with the indicated adenoviruses. Ad-GFP was also co-infected to make the same total amount of adenovirus at a MOI of 60 pfu/cell. After 4 days, cell numbers were determined using the CCK-8 kit and results are indicated as the ratio of cell numbers determined to the number of control cells, which were transduced with AD-GFP at MOI of 60 pfu/cell. […] Transduced HUVEC were suspended in complete medium and then plated at 1×10^4 cells/well in 24-well multiwell plates with 0.4 ml of indicated medium (□: Ad-N1IC; ▪: Ad-N1ECDFc). […]

MMP9 [1] = test: RT-PCR analysis of MMP9 expression in HUVEC; format: cell-based, human
Experimental: (§1) FIGS. 24A-B show gelatin zymography analysis of MMP-9 and MMP-2 activity stimulated by VEGF in HUVEC. […] Transduced HUVEC were cultured on fibrin gel on the indicated day (i.e. D2, D4, D6, D8). Similar results were also obtained by using collagen gel, although induction of MMP-9 was stronger on fibrin gel than collagen gel (data not shown). […] HUVEC were transduced with Ad-N1ECDFc at the indicated doses and condition medium was collected from HUVEC cultured on collagen gel at day 4. FIGS. 24C-D show up-regulation of MMP-9 and MT1-MMP with Notch signaling. HUVEC were transduced with either Ad-LacZ or Ad-N1IC at 40 MOI. Numbers show PCR cycles. […] HUVEC were transduced with Ad-VEGF in the absence or presence of co-transduction of Ad-N1ECDFc at 40 MOI each. Ad-LacZ was co-transduced to make the same total amount of adenovirus at 80 MOI.
(§2) Requisition of MMPs for angiogenic sprouting has been established by synthetic MMP inhibitors (16). GM6001 is one broad inhibitor against MMPs including MMP2, MMP9 and MT1-MMP (18).

MMP9 [2] = test: gelatin zymography of conditioned medium, MMP-9; format: cell-based, human; details: co-transduction with Ad-VEGF, fibrin gel
Experimental: as §1, §2

Ad-VEGF-infected HUVEC = test: VEGF-induced HUVEC budding (sprouting) on collagen gel; format: cell-based, human; details: for budding / morphology of HUVEC with Notch fusion protein alone: no Ad-VEGF
Experimental: For making collagen gels, an ice-cold solution of porcine type I collagen (Nitta gelatin, Tokyo, Japan) was mixed with 10xRPMI1640 medium and neutralization buffer at the ratio of 8:1:1. 400 μl aliquots of collagen gel were then added to 24-well plates and allowed to gel for at least 1 hour at 37° C. Following adenoviral infection (above), HUVEC was harvested and plated at 1.3×10^5 cells per well onto the top of the collagen gel in 24-well plates in 0.8 ml of EGM2 medium. HUVEC became nearly confluent 48 hours after plating. After seeding, medium was changed every 2 days for 1 week. Sprouting was observed and photographs taken after 8 days with an Olympus digital camera mounted to a microscope. For quantification of the number of sprouts, 5 fields per each well were randomly selected and sprouting was counted under microscopy in a blind manner by two investigators.
In this experiment, we evaluated the effect of Notch decoy on induction of budding (initiation of sprouting) by over-expressed VEGF-165 in HUVEC. When Ad-VEGF-infected HUVEC were cultured on type collagen gel for 8 days, budding was induced into collagen gel.

MT1-MMP = test: RT-PCR analysis of MT1-MMP expression in HUVEC; format: cell-based, human
Experimental: as §1, §2

Notch1 signaling = test: co-culture assay of ligand-induced Notch signaling (CSL-luciferase reporter; HeLa expressing Notch1, ligand-expressing 293/Bosc cells); format: cell-based; details: for activation of Notch1 signaling by Notch ligands: N1ECD/Fc expression vector co-transfected with full-length Notch1 and CSL-luciferase reporter in HeLa cells, co-culture with ligand expressing cells
Experimental: Notch and Notch responsive transcriptional reporters are expressed in a “Notch-responsive” cell, HeLa. Notch ligands, Jagged-1, Delta-like 1, or Delta-like 4 are expressed in a “ligand-presenting” cell, 293. Expression is mediated by transfection of individual cell populations, cells are co-cultured, and then assayed for Notch-dependent reporter activity.
To determine ligand-induced Notch signaling, co-culture assays were performed using HeLa and 293-derived Bosc cells. Transient transfections were performed by calcium phosphate precipitation. Hela cells plated 1-day prior in 10-cm plates at 1.5×10^6 were transfected with 333 ng of pBOS Notch1, 333 ng pGA981-6, and 83 ng pLNC lacZ with either 666 ng pCMV-Fc or pHyTC-N1ECDFc (333 ng for x1, 666 ng for x2). Bosc cells plated 1-day prior in 10-cm plates at 4×10^6 were transfected with either 680 ng pHyTc-Jagged1, pHyTc-Dll1, pHyTc-Dll4, or pHyTc-x (empty vector). One day after transfection, the cells were co-cultured in triplicate (HeLa:Bosc, 1:2) on 12-well plates for 24 hours. Cells were harvested and luciferase activity was determined 2-days post-transfection using the Enhanced Luciferase assay kit (BD PharMingen), and […] activity was determined using the Galacto-Light Plus kit (PE Biosystems). All assays were performed in a Berthold dual-injection luminometer.
An in vitro co-culture system (FIG. 3) with ligands expressed on one cell and Notch receptor activation scored in another cell was used to measure transcriptional activation of the Notch pathway. […] The N1ECD/Fc expression vector was co-transfected at different ratios with full-length Notch1 and the CSL-luciferase reporter in HeLa cells, followed by co-culture with ligand expressing 293 cells. We observed that activation of Notch1 signaling by Notch ligands was reduced by N1ECD/Fc expression. […] Notch1ECD/Fc could block signaling mediated by Jagged1, Delta-like 1 or Delta-like 4.

MMP2 = test: gelatin zymography of conditioned medium, MMP-2; format: cell-based, human; details: co-transduction with Ad-VEGF, collagen gel, day 4
Experimental: as §1, §2

[3] = Ad-N1ECDFc infection alone, Ad-LacZ infected HUVEC (data not shown)
[4] = Ad-VEGF-HUVEC, co-transduction at 40 MOI each

B1: N1ECDFc: Notch-based fusion protein or decoy: Notch1 extracellular domain EGF repeats fused to Fc; expressed from plasmid or adenovirus (Ad-N1ECDFc) (protein)
chain: ARGLRCSQPSGTCLNGGRCEVANGTEACVCSGAFVGQRCQDPSPCLSTPCKNAGTCYVVDHGGIVDYACSCPLGFSGPLCLTPLANACLANPCRNGGTCDLLTLTEYKCRCPPGWSGKSCQQADPCASNPCANGGQCLPFESSYICGCPPGFHGPTCRQDVNECSQNPGLCRHGGTCHNEIGSYRCACRATHTGPHCELPYVPCSPSPCQNGGTCRPTGDTTHECACLPGFAGQNCEENVDDCPGNNCKNGGACVDGVNTYNCRCPPEWTGQYCTEDVDECQLMPNACQNAGTCHNSHGGYNCVCVNGWTGEDCSDNIDDCASAACFQGATCHDRVASFYCECPHGRTGLLCHLNDACISNPCNEGSNCDTNPVNGKAICTCPRGYTGPACSQDVDECALGANPCEHAGKCLNTLGSFECQCLQGYTGPRCEIDVNECISNPCQNDATCLDQIGEFQCICMPGYEGVYCEINTDECASSPCLHNGRCVDKINEFLCQCPKGFSGHLCQYDVDECASTPCKNGAKCLDGPNTYTCVCTEGYTGTHCEVDIDECDPDPCHIGLCKDGVATFTCLCQPGYTGHHCETNINECHSQPCRHGGTCQDRDNYYLCLCLKGTTGPNCEINLDDCASNPCDSGTCLDKIDGYECACEPGYTGSMCNVNIDECAGSPCHNGGTCEDGIAGFTCRCPEGYHDPTCLSEVNECNSNPCIHGACRDGLNGYKCDCAPGWSGTNCDINNNECESNPCVNGGTCKDMTSGYVCTCREGFSGPNCQTNINECASNPCLNQGTCIDDVAGYKCNCPLPYTGATCEVVLAPCATSPCKNSGVCKESEDYESFSCVCPTGWQGQTCEIDINECVKSPCRHGASCQNTNGSYRCLCQAGYTGRNCESDIDDCRPNPCHNGGSCTDGVNAAFCDCLPGFQGAFCEEDINECATNPCQNGANCTDCVDSYTCTCPTGFNGIHCENNTPDCTESSCFNGGTCVDGINSFTCLCPPGFTGSYCQYDVNECDSRPCLHGGTCQDSYGTYKCTCPQGYTGLNCQNLVRWCDSAPCKNGGKCWQTNTQYHCECRSGWTGFNCDVLSVSCEVAAQKRGIDVTLLCQHGGLCVDEEDKHYCHCQAGYTGSYCEDEVDECSPNPCQNGATCTDYLGGFSCKCVAGYHGSNCSEEINECLSQPCQNGGTCIDLTNTYKCSCPRGTQGVHCEINVDDCHPPLDPASRSPKCFNNGTCVDQVGGYTCTCPPGFVGERCEGDVNECLSNPCDPRGTQNCVQRVNDFHCECRAGHTGRRCESVINGCRGKPCRNGGVCAVASNTARGFICRCPARFEGATCENDARTCGSLRCLNGGTCISGPRSPTCLCLGSFTGPECQFPASSPCVGSNPCYNQGTCEPTSESPFYRCLCPAKFNGLLCHILDYSFTDLGPG
modifications: left off: a dimerising Fc or GST
proliferation of HUVEC (HUVEC): did not clearly alter
expression of MMP9 (MMP9 [1]; [3]): did not affect
VEGF-induced up-regulation of MMP9 mRNA (MMP9 [1]; [4]): inhibited
induction and activation of MMP9 (MMP9 [2]): inhibition
cell number in VEGF-induced budding assay (Ad-VEGF-infected HUVEC; FIG. 22I): without affecting cell number
budding of Ad-VEGF-HUVEC (Ad-VEGF-infected HUVEC; collagen gel): clearly inhibited
budding / morphology of HUVEC with Notch fusion protein alone (Ad-VEGF-infected HUVEC): Neither Ad-LacZ or Ad-N1ECDFc-transduced HUVEC formed buds
budding / morphology of HUVEC with Notch fusion protein alone (Ad-VEGF-infected HUVEC; listed as Notch fusion protein): less effect on morphology
expression of MT1-MMP (MT1-MMP; [3]): did not affect
VEGF-induced up-regulation of MT1-MMP mRNA (MT1-MMP; [4]): inhibited
concentration-dependency of inhibiting signaling (Notch1 signaling; 2:1 ratio of N1ECD/Fc to Notch1 compared with 1:1 ratio): more effective
activation of Notch1 signaling by Notch ligands (Notch1 signaling): inhibition
activation of Notch1 signaling by Notch ligands (Notch1 signaling; listed as N1ECD/Fc): reduced
signaling mediated by Delta-like 1 (Notch1 signaling; co-culture with Delta-like 1 expressing cells): block
signaling mediated by Delta-like 4 (Notch1 signaling; co-culture with Delta-like 4 expressing cells): block
signaling mediated by Jagged1 (Notch1 signaling; co-culture with Jagged1 expressing cells): block
activation of MMP2 (MMP2): inhibition
